Test results taken from PMC3407131, “Annexin A2 Is a Natural Extrahepatic Inhibitor of the PCSK9-Induced LDL Receptor Degradation” (PLoS ONE, 2012).

Biological target: T1, biotin-labeled human PCSK9 protein (residues 30–692) (human, UniProt Q8NBP7 30-692, biotin-labeled (site not stated))
T1 construct: PCSK9, human, residues 30–692; written as one chain; Held on streptavidin donor beads by the biotin; also called biotinylated PCSK9; full length PCSK9; source: baculovirus expression, purified recombinant
Assay: AlphaScreen or HTRF; competition: biotin-PCSK9 (15 nM) and His-LDLR ectodomain (15 nM) mixed with increasing AnxA2 peptide, 60 min at 20°C in 25 mM Hepes pH 7.4, 100 mM NaCl, 0.5 mM CaCl2, 0.1% BSA; streptavidin donor and nickel chelate acceptor beads, overnight at 20°C
Conditions: both partners purified

T1 sequence (Q8NBP7 30-692): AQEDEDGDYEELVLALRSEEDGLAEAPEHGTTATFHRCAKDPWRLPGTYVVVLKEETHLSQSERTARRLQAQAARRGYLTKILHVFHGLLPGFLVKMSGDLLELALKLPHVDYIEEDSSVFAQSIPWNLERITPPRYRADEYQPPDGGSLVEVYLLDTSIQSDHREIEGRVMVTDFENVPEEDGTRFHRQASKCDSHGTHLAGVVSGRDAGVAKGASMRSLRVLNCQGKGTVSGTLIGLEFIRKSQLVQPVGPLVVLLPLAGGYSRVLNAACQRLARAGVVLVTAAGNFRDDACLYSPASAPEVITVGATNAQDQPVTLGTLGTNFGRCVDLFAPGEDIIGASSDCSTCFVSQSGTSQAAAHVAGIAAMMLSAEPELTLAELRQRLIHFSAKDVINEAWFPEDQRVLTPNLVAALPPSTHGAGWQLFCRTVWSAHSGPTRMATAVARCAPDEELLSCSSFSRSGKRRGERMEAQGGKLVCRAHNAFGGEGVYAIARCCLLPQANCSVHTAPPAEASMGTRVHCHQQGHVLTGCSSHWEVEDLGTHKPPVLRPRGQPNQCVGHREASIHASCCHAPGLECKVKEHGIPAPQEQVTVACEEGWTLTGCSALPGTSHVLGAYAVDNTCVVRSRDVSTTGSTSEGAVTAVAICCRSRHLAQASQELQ

fold lower apparent potency than the peptide 25–97	IC50	Binder
~20 fold	–	Ac-KGVDEVTIVNILTNRSNAQRQDIAFAYQRRTKKELASALKSALSGHLET-NH2 (peptide, UniProt P07355 49-97, looked up, annexin A2 (AnxA2), residues 49–97 of the R1 domain; also called intermediate length peptide (49–97); aa 49–97 peptide; source: synthetic peptide (solid phase synthesis, RP-HPLC purified)) [intermediate 49 aa AnxA2 peptide (residues 49–97)]
–	~600 nM	73 aa peptide corresponding to the AnxA2 R1 domain (residues 25–97) (peptide, UniProt P07355 25-97, looked up, N-terminus acetylated; C-terminal amide, annexin A2 (AnxA2), residues 25–97 of the R1 domain; also called 73-mer AnxA2 peptide (aa 25–97); long peptide form; source: synthetic peptide (solid phase synthesis, RP-HPLC purified)) peptide: GSVKAYTNFDAERDALNIETAIKTKGVDEVTIVNILTNRSNAQRQDIAFAYQRRTKKELASALKSALSGHLET
